Where no end group is shown, it is not given here. [ ]: non-standard residue; d: D form. pS = N[C@@H](COP(=O)(O)O)C(=O)O
Target: T1, HLA-A*02:01 (human)
T1 construct: Peptide-receptive HLA-A*02:01 monomer obtained by UV cleavage of a UV-sensitive ligand; captured on streptavidin plates; also called peptide-receptive MHC molecules; MHC class I
Assay: UV-ligand exchange, anti-b2m ELISA; grade of peptide exchange yield (>10% = +; >20% = ++; >50 = +++; >75% = ++++)
Description: Candidate peptides for T cell based therapies according to the present invention were further tested for their MHC binding capacity (affinity). The individual peptide-MHC complexes were produced by UV-ligand exchange, where a UV-sensitive peptide is cleaved upon UV-irradiation, and exchanged with the peptide of interest as analyzed. Only peptide candidates that can effectively bind and stabilize the peptide-receptive MHC molecules prevent dissociation of the MHC complexes. To determine the yield of the exchange reaction, an ELISA was performed based on the detection of the light chain (β2m) of stabilized MHC complexes. The assay was performed as generally described in Rodenko et al. (Rodenko et al., 2006).
96 well MAXISorp plates (NUNC) were coated over night with 2 ug/ml streptavidin in PBS at room temperature, washed 4× and blocked for 1 h at 37° C. in 2% BSA containing blocking buffer. Refolded HLA-A*02:01/MLA-001 monomers served as standards, covering the range of 15-500 ng/ml. Peptide-MHC monomers of the UV-exchange reaction were diluted 100-fold in blocking buffer. Samples were incubated for 1 h at 37° C., washed four times, incubated with 2 ug/ml HRP conjugated anti-β2m for 1 h at 37° C., washed again and detected with TMB solution that is stopped with […]. Absorption was measured at 450 nm. Candidate peptides that show a high exchange yield (preferably higher than 50%, most preferred higher than 75%) are generally preferred for a generation and production of antibodies or fragments thereof, and/or T cell receptors or fragments thereof, as they show sufficient avidity to the MHC molecules and prevent dissociation of the MHC complexes.

| Binder | peptide exchange yield [%] |
| --- | --- |
| GLIEWLENTV | > 75 |
| ALDTFSVQV | > 75 |
| GLAGGFGGPGFPV | > 75 |
| YLYPDLSRL | > 75 |
| VLNVGVAEV | 50 to 75 |
| AIYEGVGWNV | > 75 |
| SLCPPGGIQEV | > 75 |
| KILE[pS]LFV[pS]L [KILEJLFVJL] | 50 to 75 |
| FVAGYIAGV | > 75 |
| GLWSSIFSL | > 75 |
| KILEMDDPRA | 20 to 50 |
| SLPESGLLSV | 50 to 75 |
| ALKDSVQRA | 50 to 75 |
| SIWPALTQV | > 75 |
| AVDPVSGSLYV | > 75 |
| KLLPGVQYV | > 75 |
| HLATVKLLV | > 75 |
| LLTPLNLQI | 50 to 75 |
| RLVEVGGDVQL | > 75 |
| QLLEGELETL | 50 to 75 |
| YLWEAHTNI | > 75 |
| AILGFALSEA | > 75 |

| Binder | peptide exchange yield [%] |
| --- | --- |
| AQLNLIWQL | > 75 |
| ALSNVVHKV | > 75 |
| YLQNEVFGL | 50 to 75 |
| LLFTGLVSGV | 50 to 75 |
| ALAKLLPLL | > 75 |
| SLYGLGGSKRISI | 50 to 75 |
| YLINEIDRIRA | > 75 |
| TLTDEINFL | > 75 |
| IQDAEGAIHEV | > 75 |
| TLLSEIAEL | > 75 |
| FLHEPFSSV | > 75 |
| ALYDAELSQM | 50 to 75 |
| SLSDIQPCL | 50 to 75 |
| SLGNFKDDLL | 50 to 75 |
| AVLGGKLYV | > 75 |
| TLVDENQSWYL (also called TLVDENQSWYL) […] | 50 to 75 |
| TLASLGYAVV | 50 to 75 |
| ILSSACYTV | > 75 |
| ILLEDVFQL | > 75 |
| VCPPGGIQEV | 50 to 75 |
| RLLPDLDEV | > 75 |
| GLGDDSFPI | > 75 |

| Binder | peptide exchange yield [%] |
| --- | --- |
| RIMEGIPTV | > 75 |
| SLVSYLDKV | > 75 |
| ILDINDNPPV | 50 to 75 |
| VLDINDNPPV | 50 to 75 |
| YLLDYPNNL | 50 to 75 |
| KLPEPCPSTV | 50 to 75 |
| PVCPPGGIQEV | 50 to 75 |
| ALWGFFPVLL | > 75 |
| VLFSSPPVI | > 75 |
| TLWPATPPKA | 50 to 75 |
| GLISSIEAQL | > 75 |
| ALMDEINFMKM | > 75 |
| SMLNNIINL | 50 to 75 |
| LLIAINPQV | > 75 |
| RLNGEGVGQVNISV | 20 to 50 |
| ALVGDVILTV | > 75 |
| YLAEPQWAV | > 75 |
| LLPEDDTRDNV | 50 to 75 |
| FLQLETEQV | > 75 |
| FLIPSIIFA | > 75 |
| RLSGEGVGPV | 50 to 75 |
| ALYTSGHLL | > 75 |
